Biological target: GST-TRAF6 (mouse) (UniProt P70196)
Test: SPR

Sequence of UniProt P70196 (P70196 whole entry): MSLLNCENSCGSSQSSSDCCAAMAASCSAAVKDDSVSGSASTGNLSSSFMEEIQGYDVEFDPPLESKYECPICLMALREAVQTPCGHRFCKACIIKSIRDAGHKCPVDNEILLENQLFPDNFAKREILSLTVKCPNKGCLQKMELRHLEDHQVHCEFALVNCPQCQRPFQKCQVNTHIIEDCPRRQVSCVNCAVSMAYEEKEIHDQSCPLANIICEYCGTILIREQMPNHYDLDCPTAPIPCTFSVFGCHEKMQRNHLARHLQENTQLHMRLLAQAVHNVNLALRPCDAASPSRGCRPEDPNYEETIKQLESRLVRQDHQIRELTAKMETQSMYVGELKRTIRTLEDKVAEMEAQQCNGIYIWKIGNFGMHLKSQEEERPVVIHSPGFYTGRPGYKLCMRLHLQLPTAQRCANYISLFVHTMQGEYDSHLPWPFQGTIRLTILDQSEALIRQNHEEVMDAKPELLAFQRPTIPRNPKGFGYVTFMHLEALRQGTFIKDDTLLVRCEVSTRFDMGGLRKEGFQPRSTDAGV

Kd: 88 µM
stoichiometry N: 1
Substance: neuroplastin intracellular peptide containing the TRAF6 binding motif

Source: article doi:10.1101/768341
